Results published in patent US20180346564A1 (TEIJIN PHARMA, published 2018).
[ ]: non-standard residue; d: D form. pT = C[C@@H](OP(=O)(O)O)[C@H](N)C(=O)O; pS = N[C@@H](COP(=O)(O)O)C(=O)O

T1: Peptide No. 1, pS46, H-GLKE(pS)PLQT-OH (human, SMILES CC(C)C[C@H](NC(=O)CN)C(=O)N[C@@H](CCCCN)C(=O)N[C@@H](CCC(=O)O)C(=O)N[C@@H](COP(=O)(O)O)C(=O)N1CCC[C@H]1C(=O)N[C@@H](CC(C)C)C(=O)N[C@@H](CCC(N)=O)C(=O)N[C@H](C(=O)O)[C@@H](C)O)
T1 peptide: H-GLKE[pS]PLQT-OH

T2: Peptide No. 2, pS199, H-SGYS(pS)PGSPGC-OH (human, SMILES N[C@@H](CO)C(=O)NCC(=O)N[C@@H](Cc1ccc(O)cc1)C(=O)N[C@@H](CO)C(=O)N[C@@H](COP(=O)(O)O)C(=O)N1CCC[C@H]1C(=O)NCC(=O)N[C@@H](CO)C(=O)N1CCC[C@H]1C(=O)NCC(=O)N[C@@H](CS)C(=O)O)
T2 peptide: H-SGYS[pS]PGSPGC-OH

T3: Peptide No. 3, pS202, H-SSPG(pS)PGTPC-OH (human, SMILES C[C@@H](O)[C@H](NC(=O)CNC(=O)[C@@H]1CCCN1C(=O)[C@H](COP(=O)(O)O)NC(=O)CNC(=O)[C@@H]1CCCN1C(=O)[C@H](CO)NC(=O)[C@@H](N)CO)C(=O)N1CCC[C@H]1C(=O)N[C@@H](CS)C(=O)O)
T3 peptide: H-SSPG[pS]PGTPC-OH

T4: Peptide No. 4, pT212/pS214, H-GCGSPGTPGSRSR(pT)P(pS)LPTPPTREPK-OH (human, phosphothreonine (pT) at peptide position 14 (tau Thr212); phosphoserine (pS) at peptide position 16 (tau Ser214))
T4 peptide: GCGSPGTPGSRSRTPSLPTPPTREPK

T5: Peptide No. 5, pT217, H-GC-GSRSRTPSLP(pT)PPTREPKKVAVV-OH (human, phosphothreonine (pT) at peptide position 13 (tau Thr217))
T5 peptide: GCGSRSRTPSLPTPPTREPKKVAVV

T6: Peptide No. 6, pT231, H-KVAVVR(pT)PPKSPS-OH (human)
T6 peptide: H-KVAVVR[pT]PPKSPS-OH

T7: Peptide No. 7, pS396/pS400/pS404, H-GC-RENAKAKTDHGAEIVYK(pS)PVV(pS)GDT(pS)PRHL-OH (human, phosphoserine (pS) at peptide positions 20, 24 and 28 (tau Ser396, Ser400, Ser404))
T7 peptide: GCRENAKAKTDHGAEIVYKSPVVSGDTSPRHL

T8: Peptide No. 8, pS412, H-NV(pS)STGSC-OH (human, SMILES CC(C)[C@H](NC(=O)[C@@H](N)CC(N)=O)C(=O)N[C@@H](COP(=O)(O)O)C(=O)N[C@@H](CO)C(=O)N[C@H](C(=O)NCC(=O)N[C@@H](CO)C(=O)N[C@@H](CS)C(=O)O)[C@@H](C)O)
T8 peptide: H-NV[pS]STGSC-OH

B1: humanized antibody L46H11 (antibody, human IgG1, kappa)
heavy: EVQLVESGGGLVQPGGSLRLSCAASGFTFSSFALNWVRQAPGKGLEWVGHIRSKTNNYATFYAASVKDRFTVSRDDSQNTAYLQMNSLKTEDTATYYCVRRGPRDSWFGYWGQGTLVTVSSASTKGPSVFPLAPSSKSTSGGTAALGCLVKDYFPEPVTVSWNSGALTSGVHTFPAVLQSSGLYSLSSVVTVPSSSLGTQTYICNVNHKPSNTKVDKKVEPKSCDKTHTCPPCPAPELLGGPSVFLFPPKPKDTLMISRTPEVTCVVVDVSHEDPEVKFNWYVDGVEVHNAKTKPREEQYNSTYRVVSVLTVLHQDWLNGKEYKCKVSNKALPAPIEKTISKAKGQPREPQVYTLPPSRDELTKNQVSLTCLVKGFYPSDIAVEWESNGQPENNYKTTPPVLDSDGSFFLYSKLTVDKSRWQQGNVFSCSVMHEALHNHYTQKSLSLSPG
light: DIVMTQSPLSLPVTLGEPASISCRSSQSIVHSNGNTYLEWYLQKPGQSPQLLIYTVSNRFSGVPDRFSGSGSGTDFTLKISRVEAEDLGVYYCFQGSHLPLTFGGGTKVEIKRTVAAPSVFIFPPSDEQLKSGTASVVCLLNNFYPREAKVQWKVDNALQSGNSQESVTEQDSKDSTYSLSSTLTLSKADYEKHKVYACEVTHQGLSSPVTKSFNRGEC
B2: humanized antibody L48H47 (antibody, human IgG1, kappa, V domains shown)
VH: EVQLVESGGGLVQPGGSLRLSCAASGFAFNSFALNWVRQAPGKGLEWVGHIRSKTNNYATFYAASVKDRFTVSRDDSQNTAYLQMNSLKTEDTATYYCVRRGPRDSWFGYWGQGTLVTVSS
VL: DIVMTQSPLSLPVTLGDPASISCRSSQNIVHSNGNTYLEWYQQKPGQSPQLLIYTVSNRFSGVPDRFSGSGSGTDFTLKISRVEAEDLGVYYCFQGSHLPLTFGGGTKVEIKR
notes: VL48/VH47, human IgG1/kappa
B3: humanized antibody L47H11 (antibody, human IgG1, kappa, V domains shown)
VH: EVQLVESGGGLVQPGGSLRLSCAASGFTFSSFALNWVRQAPGKGLEWVGHIRSKTNNYATFYAASVKDRFTVSRDDSQNTAYLQMNSLKTEDTATYYCVRRGPRDSWFGYWGQGTLVTVSS
VL: DIVMTQSPLSLPVTLGDPASISCRSSQSIVHSNGNTYLEWYQQKPGQSPQRLIYTVSNRFSGVPDRFSGSGSGTDFTLKISRVEAEDLGVYYCFQGSHLPLTFGGGTKVEIKR
notes: VL47/VH11, human IgG1/kappa
B4: humanized antibody L47H65 (antibody, human IgG1, kappa, V domains shown)
VH: EVQLVESGGGLVQPGGSLRLSCAASGFAFNSFALNWVRQAPGKGLEWVVHIRSKTNNYATFYAASVKDRFTVSRDDSQNTAYLQMNSLKTEDTATYYCVRRGPRDSWFGYWGQGTLVTVSS
VL: DIVMTQSPLSLPVTLGDPASISCRSSQSIVHSNGNTYLEWYQQKPGQSPQRLIYTVSNRFSGVPDRFSGSGSGTDFTLKISRVEAEDLGVYYCFQGSHLPLTFGGGTKVEIKR
B5: humanized antibody L48H12 (antibody, human IgG1, kappa, V domains shown)
VH: EVQLVESGGGLVQPGGSLRLSCAASGFAFNSFALNWVRQAPGKGLEWVGHIRSKTNNYATFYADSVKDRFTVSRDDSKNTAYLQMNSLKTEDTATYYCVRRGPRDSWFGYWGQGTLVTVSS
VL: DIVMTQSPLSLPVTLGDPASISCRSSQNIVHSNGNTYLEWYQQKPGQSPQLLIYTVSNRFSGVPDRFSGSGSGTDFTLKISRVEAEDLGVYYCFQGSHLPLTFGGGTKVEIKR
notes: VL48/VH12, human IgG1/kappa

Tests used:
[1] = target: T1, Peptide No. 1, pS46, H-GLKE(pS)PLQT-OH; assay: ELISA, coated peptide
How it was run: (§1)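 Antibody binding was taken as the absorbance signal. Plates coated with peptides or their bovine serum albumin or keyhole limpet hemocyanin conjugates (1 μg/mL in cold PBS, 50 μL/well, overnight at 4 °C) and blocked with 3% BSA-PBS overnight at 4 °C were incubated with purified antibody at 150 ng/mL for 90 minutes at room temperature. Detection used alkaline phosphatase-labelled goat anti-human IgG (H+L) at 2000-fold dilution for 60 minutes, with pNPP developed for 40 minutes and read at 405 nm (reference 550 nm).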

[2] = target: T2, Peptide No. 2, pS199, …; assay: ELISA, coated peptide
How it was run: as §1

[3] = target: T3, Peptide No. 3, pS202, H-SSPG(pS)PGTPC-OH; assay: ELISA, coated peptide
How it was run: as §1

[4] = target: T4, Peptide No. 4, pT212/pS214, …; assay: ELISA, coated peptide
How it was run: as §1

[5] = target: T5, Peptide No. 5, pT217, …; assay: ELISA, coated peptide
How it was run: as §1

[6] = target: T6, Peptide No. 6, pT231, …; assay: ELISA, coated peptide
How it was run: as §1

[7] = target: T7, Peptide No. 7, pS396/pS400/pS404, …; assay: ELISA, coated peptide
How it was run: as §1

[8] = target: T8, Peptide No. 8, pS412, H-NV(pS)STGSC-OH; assay: ELISA, coated peptide
How it was run: as §1

[9] = target: T9, His-tagged non-phosphorylated tau protein 4R0N (human, UniProt P10636 2-758); assay: SPR Biacore T200, antigen immobilized
T9 construct: Produced by Escherichia coli; negative control in SPR; also called ATGen Cat. No. ATGP0795
T9 sequence (P10636 other isoform, or with tags, fused parts or gaps limits assumed): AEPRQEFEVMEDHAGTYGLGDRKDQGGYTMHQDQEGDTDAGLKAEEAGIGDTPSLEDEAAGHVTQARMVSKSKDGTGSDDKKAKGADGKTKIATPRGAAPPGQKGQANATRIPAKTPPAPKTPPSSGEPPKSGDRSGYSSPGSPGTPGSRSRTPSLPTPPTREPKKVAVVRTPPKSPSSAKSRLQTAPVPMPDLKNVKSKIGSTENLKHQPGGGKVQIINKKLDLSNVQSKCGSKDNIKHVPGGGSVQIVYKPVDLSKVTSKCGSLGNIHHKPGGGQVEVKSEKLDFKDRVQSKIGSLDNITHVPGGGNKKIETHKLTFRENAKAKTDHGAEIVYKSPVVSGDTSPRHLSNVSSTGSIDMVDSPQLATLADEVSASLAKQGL
Experimental: The binding affinities of the hyperphosphorylated tau protein 4R2N (hpTau), non-phosphorylated tau protein 4R0N, monophosphorylated tau peptide 1×P, triphosphorylated tau peptide 3×P, and non-phosphorylated tau peptide Non P with each antibody were measured with an SPR system Biacore T200 (GE Healthcare Japan), in accordance with the instruction manual for evaluation attached to the system.
The His-tagged hpTau or Tau proteins were each immobilized on a sensor chip using an HBS-N buffer (code No. BR-1003-69) as the immobilization reaction solution and allowing a nickel chloride solution to react with the NTA sensor chip for bonding Ni to NTA. Subsequently, the sensor chip was activated with a mixed solution of N-ethyl-N′-(3-dimethylaminopropyl)-carbodiimide hydrochloride (1-ethyl-3-(3-dimethylaminopropyl)carbodiimide hydrochloride: EDC) and N-hydroxysuccinimide (NHS). A solution of each of the His-tagged proteins, adjusted to a concentration of 100 to 500 ng/mL with a 4-(2-hydroxyethyl)-1-piperazineethanesulfonic acid (HEPES) buffer (0.01 M HEPES, 150 mM KCl, 2 mM DTT, 1 mM EDTA, pH 7.2), was applied to the sensor chip, whereby the protein was immobilized on the sensor chip through covalent bonds with the Ni-NTA. The remaining active NHS was blocked with ethanolamine, and Ni ions were removed with an EDTA solution (Ni-affinity amine coupling: see International Publication No. WO2005/022156). The antigen peptides (1×P, 3×P, and Non P) were each immobilized on a sensor chip by activating the NTA sensor chip with a mixed solution of N-ethyl-N′-(3-dimethylaminopropyl)-carbodiimide (EDC) hydrochloride and N-hydroxysuccinimide (NHS), and then applying a solution of the antigen peptide diluted with a 10 mM sodium acetate buffer (pH: 4 to 4.5) to 1 to 10 μM to the sensor chip, whereby the peptide was covalently bound to the sensor chip. The remaining active NHS was blocked with ethanolamine. Thus, sensor chips immobilized respectively with the proteins and peptides mentioned above were produced.
A CAPS buffer (pH 10.5) was applied to these sensor chips at 37° C. to stabilize the protein- or peptide-immobilized surfaces of the sensor chips.

| Binder | binding result [1] | binding result [2] | binding result [3] | binding result [4] | binding result [5] | binding result [6] | binding result [7] | binding result [8] | binding result [9] |
| --- | --- | --- | --- | --- | --- | --- | --- | --- | --- |
| B1 | no binding (tested: OD value <0.5; antibody 150 ng/mL) | no binding (tested: OD value <0.5; antibody 150 ng/mL) | no binding (tested: OD value <0.5; antibody 150 ng/mL) | no binding (tested: OD value <0.5; antibody 150 ng/mL) | no binding (tested: OD value <0.5; antibody 150 ng/mL) | no binding (tested: OD value <0.5; antibody 150 ng/mL) | no binding (tested: OD value <0.5; antibody 150 ng/mL) | no binding (tested: OD value <0.5; antibody 150 ng/mL) | no binding (tested: 0.2 to 1 nM) |
| B2 | no binding (tested: OD value <0.5; antibody 150 ng/mL) | no binding (tested: OD value <0.5; antibody 150 ng/mL) | no binding (tested: OD value <0.5; antibody 150 ng/mL) | no binding (tested: OD value <0.5; antibody 150 ng/mL) | no binding (tested: OD value <0.5; antibody 150 ng/mL) | no binding (tested: OD value <0.5; antibody 150 ng/mL) | no binding (tested: OD value <0.5; antibody 150 ng/mL) | no binding (tested: OD value <0.5; antibody 150 ng/mL) | no binding (tested: 0.2 to 1 nM) |
| B3 | no binding (tested: OD value <0.5; antibody 150 ng/mL) | no binding (tested: OD value <0.5; antibody 150 ng/mL) | no binding (tested: OD value <0.5; antibody 150 ng/mL) | no binding (tested: OD value <0.5; antibody 150 ng/mL) | no binding (tested: OD value <0.5; antibody 150 ng/mL) | no binding (tested: OD value <0.5; antibody 150 ng/mL) | no binding (tested: OD value <0.5; antibody 150 ng/mL) | no binding (tested: OD value <0.5; antibody 150 ng/mL) | no binding (tested: 0.2 to 1 nM) |
| B4 | no binding (tested: OD value <0.5; antibody 150 ng/mL) | no binding (tested: OD value <0.5; antibody 150 ng/mL) | no binding (tested: OD value <0.5; antibody 150 ng/mL) | no binding (tested: OD value <0.5; antibody 150 ng/mL) | no binding (tested: OD value <0.5; antibody 150 ng/mL) | no binding (tested: OD value <0.5; antibody 150 ng/mL) | no binding (tested: OD value <0.5; antibody 150 ng/mL) | no binding (tested: OD value <0.5; antibody 150 ng/mL) | no binding (tested: 0.2 to 1 nM) |
| B5 | no binding (tested: OD value <0.5; antibody 150 ng/mL) | no binding (tested: OD value <0.5; antibody 150 ng/mL) | no binding (tested: OD value <0.5; antibody 150 ng/mL) | no binding (tested: OD value <0.5; antibody 150 ng/mL) | no binding (tested: OD value <0.5; antibody 150 ng/mL) | no binding (tested: OD value <0.5; antibody 150 ng/mL) | no binding (tested: OD value <0.5; antibody 150 ng/mL) | no binding (tested: OD value <0.5; antibody 150 ng/mL) | no binding (tested: 0.2 to 1 nM) |
